# Laboratory results published in the supplement of paper PMC10567573.
# B1: STK38L (parent)
# chain: FCIDSENRIGNSGVEEIKGHPFFE
# B2: TRIM14 (parent)
# chain: YARTPTLDPDTMHARLRLSADRLT
# Variants of: B1
# Experiment: protein stability index of a GFP-peptide fusion (GPS, HEK-293T) (PSI 1-6); higher = more stable
# Conditions: c terminus: a fixed tail appended
# 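Also: lentivirally expressed fusions sorted by FACS into six bins by GFP to DsRed ratio, PSI derived from sequencing read proportions per bin multiplied by bin number.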
row,Variant,protein stability index
1,FCKDSENRIGNSGVEEIKGHPFFE [I3K],2.5
2,FCWDSENRIGNSGVEEIKGHPFFE [I3W],2.19
3,FCDDSENRIGNSGVEEIKGHPFFE [I3D],4.02
4,FCNDSENRIGNSGVEEIKGHPFFE [I3N],3.43
5,FCCDSENRIGNSGVEEIKGHPFFE [I3C],1.96
6,FCRDSENRIGNSGVEEIKGHPFFE [I3R],2.49
7,FCEDSENRIGNSGVEEIKGHPFFE [I3E],3.95
8,FCTDSENRIGNSGVEEIKGHPFFE [I3T],3.6
9,FCFDSENRIGNSGVEEIKGHPFFE [I3F],2.23
10,FCMDSENRIGNSGVEEIKGHPFFE [I3M],2.9
11,FCSDSENRIGNSGVEEIKGHPFFE [I3S],2.3
12,FCYDSENRIGNSGVEEIKGHPFFE [I3Y],2.16
13,FCHDSENRIGNSGVEEIKGHPFFE [I3H],2.75
14,FCQDSENRIGNSGVEEIKGHPFFE [I3Q],3.06
15,FCLDSENRIGNSGVEEIKGHPFFE [I3L],2.57
16,FCGDSENRIGNSGVEEIKGHPFFE [I3G],3.29
17,FCVDSENRIGNSGVEEIKGHPFFE [I3V],3.26
18,FCPDSENRIGNSGVEEIKGHPFFE [I3P],1.85
19,FCIDSENRIANSGVEEIKGHPFFE [G10A],2.27
20,FCIDSENRIFNSGVEEIKGHPFFE [G10F],1.57
21,FCIDSENRIRNSGVEEIKGHPFFE [G10R],2.98
22,FCIDSENRICNSGVEEIKGHPFFE [G10C],2.32
23,FCIDSENRISNSGVEEIKGHPFFE [G10S],2.39

row,Variant,protein stability index
1,FCIDSENRINNSGVEEIKGHPFFE [G10N],3.64
2,FCIDSENRIQNSGVEEIKGHPFFE [G10Q],3.48
3,FCIDSENRILNSGVEEIKGHPFFE [G10L],1.96
4,FCIDSENRITNSGVEEIKGHPFFE [G10T],2.38
5,FCIDSENRIENSGVEEIKGHPFFE [G10E],2.54
6,FCIDSENRIWNSGVEEIKGHPFFE [G10W],1.1
7,FCIDSENRIKNSGVEEIKGHPFFE [G10K],2.53
8,FCIDSENRIHNSGVEEIKGHPFFE [G10H],2.71
9,FCIDSENRIDNSGVEEIKGHPFFE [G10D],2.75
10,FCIDSENRIVNSGVEEIKGHPFFE [G10V],1.54
11,FCIDSENRIINSGVEEIKGHPFFE [G10I],1.87
12,FCIDSENRIPNSGVEEIKGHPFFE [G10P],2.31
13,FCIDSENRIMNSGVEEIKGHPFFE [G10M],2.11
14,FCIDSENRTGNSGVEEIKGHPFFE [I9T],3.21
15,FCIDSENRFGNSGVEEIKGHPFFE [I9F],1.9
16,FCIDSENRCGNSGVEEIKGHPFFE [I9C],2.38
17,FCIDSENRVGNSGVEEIKGHPFFE [I9V],2.73
18,FCIDSENREGNSGVEEIKGHPFFE [I9E],3.42
19,FCIDSENRQGNSGVEEIKGHPFFE [I9Q],2.65
20,FCIDSENRSGNSGVEEIKGHPFFE [I9S],2.82
21,FCIDSENRGGNSGVEEIKGHPFFE [I9G],2.58
22,FCIDSENRWGNSGVEEIKGHPFFE [I9W],1.58
23,FCIDSENRYGNSGVEEIKGHPFFE [I9Y],2.58

row,Variant,protein stability index
1,FCIDSENRPGNSGVEEIKGHPFFE [I9P],3.17
2,FCIDSENRLGNSGVEEIKGHPFFE [I9L],1.99
3,FCIDSENRMGNSGVEEIKGHPFFE [I9M],2.03
4,FCIDSENRKGNSGVEEIKGHPFFE [I9K],2.19
5,FCIDSENRRGNSGVEEIKGHPFFE [I9R],2.71
6,FCIDSENRNGNSGVEEIKGHPFFE [I9N],2.2
7,FCIDSENRHGNSGVEEIKGHPFFE [I9H],2.9
8,FCIKSENRIGNSGVEEIKGHPFFE [D4K],2.83
9,FCIRSENRIGNSGVEEIKGHPFFE [D4R],1.7
10,FCILSENRIGNSGVEEIKGHPFFE [D4L],1.25
11,FCIVSENRIGNSGVEEIKGHPFFE [D4V],2.22
12,FCIFSENRIGNSGVEEIKGHPFFE [D4F],1.46
13,FCIMSENRIGNSGVEEIKGHPFFE [D4M],2.86
14,FCIHSENRIGNSGVEEIKGHPFFE [D4H],2.8
15,FCIISENRIGNSGVEEIKGHPFFE [D4I],2.24
16,FCIQSENRIGNSGVEEIKGHPFFE [D4Q],2.78
17,FCIYSENRIGNSGVEEIKGHPFFE [D4Y],2.07
18,FCIESENRIGNSGVEEIKGHPFFE [D4E],2.91
19,FCISSENRIGNSGVEEIKGHPFFE [D4S],1.3
20,FCIPSENRIGNSGVEEIKGHPFFE [D4P],3.47
21,FCIASENRIGNSGVEEIKGHPFFE [D4A],2.09
22,FCITSENRIGNSGVEEIKGHPFFE [D4T],2.44
23,FCIWSENRIGNSGVEEIKGHPFFE [D4W],1.84

row,Variant,protein stability index
1,FCIGSENRIGNSGVEEIKGHPFFE [D4G],2
2,FCINSENRIGNSGVEEIKGHPFFE [D4N],1.89
3,FCIDSKNRIGNSGVEEIKGHPFFE [E6K],2.12
4,FCIDSVNRIGNSGVEEIKGHPFFE [E6V],1.8
5,FCIDSPNRIGNSGVEEIKGHPFFE [E6P],1.48
6,FCIDSHNRIGNSGVEEIKGHPFFE [E6H],2.16
7,FCIDSYNRIGNSGVEEIKGHPFFE [E6Y],1.71
8,FCIDSFNRIGNSGVEEIKGHPFFE [E6F],1.46
9,FCIDSINRIGNSGVEEIKGHPFFE [E6I],2.23
10,FCIDSDNRIGNSGVEEIKGHPFFE [E6D],1.91
11,FCIDSCNRIGNSGVEEIKGHPFFE [E6C],1.77
12,FCIDSMNRIGNSGVEEIKGHPFFE [E6M],2.89
13,FCIDSLNRIGNSGVEEIKGHPFFE [E6L],2.21
14,FCIDSANRIGNSGVEEIKGHPFFE [E6A],1.37
15,FCIDSTNRIGNSGVEEIKGHPFFE [E6T],1.74
16,FCIDSRNRIGNSGVEEIKGHPFFE [E6R],2
17,FCIDSNNRIGNSGVEEIKGHPFFE [E6N],1.59
18,FCIDSGNRIGNSGVEEIKGHPFFE [E6G],1.98
19,FCIDSWNRIGNSGVEEIKGHPFFE [E6W],1.35
20,FCIDSQNRIGNSGVEEIKGHPFFE [E6Q],1.73
21,FCIDSSNRIGNSGVEEIKGHPFFE [E6S],2.86

# Variants of: B2
# Experiment: as above
# Conditions: c terminus: a fixed tail appended
row,Variant,protein stability index
1,YARTPTLDPDTMHARLRLSADRLW [T24W],1.73
2,YARTPTLDPDTMHARLRLSADRLY [T24Y],2.08
3,YARTPTLDPDTMHARLRLSADRLS [T24S],2.54
4,YARTPTLDPDTMHARLRLSADRLV [T24V],2.21
